From US20140051633A1

Columns and labels:
[1] = biological target: human Hepatocyte Growth Factor (HGF) (human) (UniProt P14210); assay: competition with ^3H-Hinge for soluble HGF
[2] = biological target: human Hepatocyte Growth Factor (HGF) (human) (UniProt P14210); assay: competition with ^3H-Hinge for soluble HGF (1.25 ng), Bio-Gel P6 spin columns, scintillation counting
[3] = biological target: Hepatocyte Growth Factor (HGF), species not stated (Homo sapiens (Human)) (UniProt P14210); assay: ^3H Dihexa incubated with different concentrations of HGF, Biogel P6 columns, scintillation counting
Hepatocyte Growth Factor (HGF), species not stated (Homo sapiens (Human)), sequence (P14210 32-494 limits assumed, form in doubt, chain 1 of 2): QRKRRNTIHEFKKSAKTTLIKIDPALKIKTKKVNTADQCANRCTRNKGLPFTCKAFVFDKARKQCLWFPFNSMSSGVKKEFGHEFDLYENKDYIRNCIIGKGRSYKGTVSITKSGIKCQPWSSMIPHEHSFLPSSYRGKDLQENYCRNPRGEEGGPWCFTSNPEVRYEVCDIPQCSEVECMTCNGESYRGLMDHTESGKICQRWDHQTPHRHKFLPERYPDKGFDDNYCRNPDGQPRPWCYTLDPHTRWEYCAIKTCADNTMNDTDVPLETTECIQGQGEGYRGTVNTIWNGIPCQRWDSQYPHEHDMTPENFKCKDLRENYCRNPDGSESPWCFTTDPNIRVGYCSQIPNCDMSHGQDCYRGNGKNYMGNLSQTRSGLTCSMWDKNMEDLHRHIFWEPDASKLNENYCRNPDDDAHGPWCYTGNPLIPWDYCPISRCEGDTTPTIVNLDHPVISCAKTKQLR
Hepatocyte Growth Factor (HGF), species not stated (Homo sapiens (Human)), sequence (P14210 495-728 limits assumed, form in doubt, chain 2 of 2): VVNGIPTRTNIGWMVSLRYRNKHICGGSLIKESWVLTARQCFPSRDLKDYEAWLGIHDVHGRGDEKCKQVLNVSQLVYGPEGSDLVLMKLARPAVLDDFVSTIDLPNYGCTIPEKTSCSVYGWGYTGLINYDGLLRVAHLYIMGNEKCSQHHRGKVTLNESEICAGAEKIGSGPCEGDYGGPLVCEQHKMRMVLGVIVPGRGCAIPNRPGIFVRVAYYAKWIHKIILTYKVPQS

[4] = biological target: Hepatocyte Growth Factor (HGF), species not stated (Homo sapiens (Human)) (UniProt P14210); assay: ^3H Dihexa binding to HGF (FIG. 43), repeated in the text

human Hepatocyte Growth Factor (HGF) (human), sequence (P14210 32-728 limits assumed): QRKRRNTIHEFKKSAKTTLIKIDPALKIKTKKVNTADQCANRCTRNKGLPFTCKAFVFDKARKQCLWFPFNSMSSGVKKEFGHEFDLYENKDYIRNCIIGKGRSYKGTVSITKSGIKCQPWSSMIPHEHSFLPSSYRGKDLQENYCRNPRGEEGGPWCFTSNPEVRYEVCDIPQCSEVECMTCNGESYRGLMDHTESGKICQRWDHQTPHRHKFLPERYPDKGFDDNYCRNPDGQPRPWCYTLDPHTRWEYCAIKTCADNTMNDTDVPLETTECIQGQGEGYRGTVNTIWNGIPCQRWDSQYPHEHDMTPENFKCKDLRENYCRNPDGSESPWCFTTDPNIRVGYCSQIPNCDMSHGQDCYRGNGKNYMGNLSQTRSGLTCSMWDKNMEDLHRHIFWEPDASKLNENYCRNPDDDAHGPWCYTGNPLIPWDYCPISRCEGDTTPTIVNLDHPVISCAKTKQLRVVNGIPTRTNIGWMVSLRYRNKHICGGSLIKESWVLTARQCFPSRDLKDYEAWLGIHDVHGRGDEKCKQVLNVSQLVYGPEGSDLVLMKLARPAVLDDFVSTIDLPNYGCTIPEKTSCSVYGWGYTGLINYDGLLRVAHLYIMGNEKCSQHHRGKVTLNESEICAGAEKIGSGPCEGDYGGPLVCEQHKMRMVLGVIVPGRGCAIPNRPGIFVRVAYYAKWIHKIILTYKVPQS

D-Nle-Met-Ile-NH-(CH2)5-CONH2 (peptide)
Ki [1]: 137 nM
Ki [2]: 138 nM

D-Nle-Trp-Ile-NH-(CH2)5-CONH2 (peptide)
Ki [2]: 3.37 nM

Dihexa (N-hexanoic-Tyr-Ile-(6)-aminohexanoic amide) (peptide)
Kd [3]: 0.000221 nM
Kd [4]: 0.00022 nM

D-Nle-Cys-Ile-NH-(CH2)5-CONH2 (peptide)
Ki [1]: 0.133 nM
Ki [2]: 0.133 nM
